Publication PMC11291975, “Chemotherapy-induced acetylation of ACLY by NAT10 promotes its nuclear accumulation and acetyl-CoA production to drive chemoresistance in hepatocellular carcinoma” (Cell Death & Disease, 2024)

Biological target: T1, GST-ACLY (UniProt P53396 1-1101)
T1 construct: ATP citrate lyase (ACLY), cloned into pGEX-4T1; also called GST-ACLY protein; source: E. coli BL21 (DE3), purified (Glutathione Sepharose 4B)
T1 sequence (looked up): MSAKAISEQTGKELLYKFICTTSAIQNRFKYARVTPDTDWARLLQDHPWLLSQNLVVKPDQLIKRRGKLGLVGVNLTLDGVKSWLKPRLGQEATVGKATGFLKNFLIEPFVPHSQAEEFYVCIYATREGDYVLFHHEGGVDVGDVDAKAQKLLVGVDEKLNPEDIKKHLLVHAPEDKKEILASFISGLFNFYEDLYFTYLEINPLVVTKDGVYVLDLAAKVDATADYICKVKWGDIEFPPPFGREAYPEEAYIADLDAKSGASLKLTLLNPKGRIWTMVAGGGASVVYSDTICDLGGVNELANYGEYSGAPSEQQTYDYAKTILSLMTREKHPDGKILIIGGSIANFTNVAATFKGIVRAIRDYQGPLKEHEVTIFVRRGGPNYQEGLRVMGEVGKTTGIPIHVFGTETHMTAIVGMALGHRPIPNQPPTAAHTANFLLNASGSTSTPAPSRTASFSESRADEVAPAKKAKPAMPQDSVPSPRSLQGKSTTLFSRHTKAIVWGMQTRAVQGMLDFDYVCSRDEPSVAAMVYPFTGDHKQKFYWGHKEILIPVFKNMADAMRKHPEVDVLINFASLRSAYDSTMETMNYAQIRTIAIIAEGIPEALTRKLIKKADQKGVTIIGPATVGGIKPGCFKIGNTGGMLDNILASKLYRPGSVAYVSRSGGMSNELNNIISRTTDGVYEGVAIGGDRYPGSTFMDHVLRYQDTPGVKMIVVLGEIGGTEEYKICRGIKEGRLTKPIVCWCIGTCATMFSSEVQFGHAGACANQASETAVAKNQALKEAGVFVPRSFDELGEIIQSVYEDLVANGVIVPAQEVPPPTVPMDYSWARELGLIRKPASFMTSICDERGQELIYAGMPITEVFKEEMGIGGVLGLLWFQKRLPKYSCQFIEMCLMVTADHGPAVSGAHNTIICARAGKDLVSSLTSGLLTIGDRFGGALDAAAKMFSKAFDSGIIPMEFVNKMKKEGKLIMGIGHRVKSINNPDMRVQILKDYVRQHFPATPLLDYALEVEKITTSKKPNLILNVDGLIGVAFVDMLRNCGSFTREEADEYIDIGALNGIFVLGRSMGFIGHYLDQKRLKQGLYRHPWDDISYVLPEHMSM
Assay: pull-down; GST-ACLY or GST-ACLY deletion mutants bound to Glutathione Sepharose 4B, incubated with purified Flag-NAT10; WB with anti-Flag
Conditions: both partners purified

B1: Flag-NAT10-His (natural protein, UniProt Q9H0A0 1-1025, looked up)
chain: MHRKKVDNRIRILIENGVAERQRSLFVVVGDRGKDQVVILHHMLSKATVKARPSVLWCYKKELGFSSHRKKRMRQLQKKIKNGTLNIKQDDPFELFIAATNIRYCYYNETHKILGNTFGMCVLQDFEALTPNLLARTVETVEGGGLVVILLRTMNSLKQLYTVTMDVHSRYRTEAHQDVVGRFNERFILSLASCKKCLVIDDQLNILPISSHVATMEALPPQTPDESLGPSDLELRELKESLQDTQPVGVLVDCCKTLDQAKAVLKFIEGISEKTLRSTVALTAARGRGKSAALGLAIAGAVAFGYSNIFVTSPSPDNLHTLFEFVFKGFDALQYQEHLDYEIIQSLNPEFNKAVIRVNVFREHRQTIQYIHPADAVKLGQAELVVIDEAAAIPLPLVKSLLGPYLVFMASTINGYEGTGRSLSLKLIQQLRQQSAQSQVSTTAENKTTTTARLASARTLYEVSLQESIRYAPGDAVEKWLNDLLCLDCLNITRIVSGCPLPEACELYYVNRDTLFCYHKASEVFLQRLMALYVASHYKNSPNDLQMLSDAPAHHLFCLLPPVPPTQNALPEVLAVIQVCLEGEISRQSILNSLSRGKKASGDLIPWTVSEQFQDPDFGGLSGGRVVRIAVHPDYQGMGYGSRALQLLQMYYEGRFPCLEEKVLETPQEIHTVSSEAVSLLEEVITPRKDLPPLLLKLNERPAERLDYLGVSYGLTPRLLKFWKRAGFVPVYLRQTPNDLTGEHSCIMLKTLTDEDEADQGGWLAAFWKDFRRRFLALLSYQFSTFSPSLALNIIQNRNMGKPAQPALSREELEALFLPYDLKRLEMYSRNMVDYHLIMDMIPAISRIYFLNQLGDLALSAAQSALLLGIGLQHKSVDQLEKEIELPSGQLMGLFNRIIRKVVKLFNEVQEKAIEEQMVAAKDVVMEPTMKTLSDDLDEAAKEFQEKHKKEVGKLKSMDLSEYIIRGDDEEWNEVLNKAGPNASIISLKSDKKRKLEAKQEPKQSKKLKNRETKNKKDMKLKRKK
notes: N-acetyltransferase 10 (NAT10), cloned into pFast-Bac1 as Flag-NAT10-His; also called purified Flag-NAT10; source: baculovirus-infected sf9 cells, purified (Ni-NTA agarose)
binding result: binds
